Source: US20050037969A1 (ARBOR VITA, published 2005)
Ends that are not written are not given here. * marks the point of attachment. Biotin = O=C1N[C@H]2[C@H](CS[C@H]2CCCCC(=O)*)N1

Columns and labels:
Test in all cases: A/G assays
[1] = target: T1, GST-TAX-IP43 PDZ domain fusion protein (human, UniProt Q13884 109-180)
T1 construct: also called TAX43; not shown: glutathione S-transferase encoded by vector pGEX-3X (Pharmacia)
T1 sequence: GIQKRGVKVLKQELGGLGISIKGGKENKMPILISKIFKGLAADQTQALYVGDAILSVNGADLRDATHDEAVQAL

[2] = target: T2, GST-LIM protein PDZ domain fusion protein (Human, UniProt Q96HC4 2-85)
T2 construct: also called Human LIM protein; not shown: glutathione S-transferase encoded by vector pGEX-3X (Pharmacia)
T2 sequence: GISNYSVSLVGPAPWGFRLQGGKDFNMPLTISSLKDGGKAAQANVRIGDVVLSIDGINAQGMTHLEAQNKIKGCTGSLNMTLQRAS

[3] = target: T3, GST-TAX-IP2 PDZ domain fusion protein (human, UniProt O14908 129-216)
T3 construct: also called TAX-1P2; TAX2; not shown: glutathione S-transferase encoded by vector pGEX-3X (Pharmacia)
T3 chain: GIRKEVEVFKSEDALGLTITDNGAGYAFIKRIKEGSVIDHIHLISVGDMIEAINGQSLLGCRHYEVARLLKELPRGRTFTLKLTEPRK

[4] = target: T4, GST-MPP1 PDZ domain fusion protein (Homo sapiens (Human), UniProt Q00013 67-152)
T4 construct: also called p55; 55 Kd erythrocyte membrane protein; not shown: glutathione S-transferase encoded by vector pGEX-3X (Pharmacia)
T4 sequence: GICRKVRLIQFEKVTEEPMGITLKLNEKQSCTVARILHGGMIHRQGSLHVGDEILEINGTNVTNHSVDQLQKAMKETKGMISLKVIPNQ

[5] = target: T5, GST-AF6 PDZ domain fusion protein (Homo sapiens (Human), UniProt P55196 1001-1093)
T5 construct: also called af-6 protein; not shown: glutathione S-transferase encoded by vector pGEX-3X (Pharmacia)
T5 sequence: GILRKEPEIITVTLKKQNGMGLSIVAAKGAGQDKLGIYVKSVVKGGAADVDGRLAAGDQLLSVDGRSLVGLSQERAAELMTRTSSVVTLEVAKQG

[6] = target: T6, GST-PDZK1 fusion protein (PDZ domains 2-4) (Homo sapiens, UniProt Q5T2W1 134-457)
T6 construct: not shown: glutathione S-transferase encoded by vector pGEX-3X (Pharmacia)
T6 sequence: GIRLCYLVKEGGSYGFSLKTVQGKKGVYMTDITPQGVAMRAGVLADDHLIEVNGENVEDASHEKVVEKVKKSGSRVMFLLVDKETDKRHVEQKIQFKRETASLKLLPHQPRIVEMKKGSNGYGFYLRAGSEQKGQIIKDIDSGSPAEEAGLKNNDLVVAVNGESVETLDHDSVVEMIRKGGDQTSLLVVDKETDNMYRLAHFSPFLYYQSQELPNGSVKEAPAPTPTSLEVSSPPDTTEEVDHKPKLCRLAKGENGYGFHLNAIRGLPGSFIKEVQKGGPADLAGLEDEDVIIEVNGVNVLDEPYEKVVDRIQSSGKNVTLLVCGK

[7] = target: T7, GST-mouse syntenin fusion protein (Mus musculus, UniProt O08992 108-286)
T7 construct: also called Mus musculus Syntenin; not shown: glutathione S-transferase encoded by vector pGEX-3X (Pharmacia)
T7 chain: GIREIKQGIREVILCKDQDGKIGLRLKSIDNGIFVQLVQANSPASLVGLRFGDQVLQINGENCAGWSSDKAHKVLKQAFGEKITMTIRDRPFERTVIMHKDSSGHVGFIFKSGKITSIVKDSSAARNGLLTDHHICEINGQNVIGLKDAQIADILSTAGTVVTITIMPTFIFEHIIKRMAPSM

[8] = target: T8, GST-TAX-IP40 PDZ domain fusion protein (human, UniProt Q6B4M5 150-252 (rat entry))
T8 construct: also called TAX40; not shown: glutathione S-transferase encoded by vector pGEX-3X (Pharmacia)
T8 sequence: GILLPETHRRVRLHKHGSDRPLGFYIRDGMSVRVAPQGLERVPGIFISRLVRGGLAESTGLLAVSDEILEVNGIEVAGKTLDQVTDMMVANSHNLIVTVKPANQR

[9] = target: T9, X11β PDZ-GST fusion protein (Rattus norvegicus (Rat), UniProt O35431 560-745)
T9 construct: Order of GST and PDZ part and limits not seen in the excerpts
T9 chain: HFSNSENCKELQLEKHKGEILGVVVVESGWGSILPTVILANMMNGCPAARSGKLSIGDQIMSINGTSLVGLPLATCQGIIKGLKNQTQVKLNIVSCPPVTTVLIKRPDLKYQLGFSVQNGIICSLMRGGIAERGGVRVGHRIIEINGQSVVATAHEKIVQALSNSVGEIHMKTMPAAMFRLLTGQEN

[10] = target: T10, TAX-IP33 PDZ-GST fusion protein (Homo sapiens (Human), UniProt O14910 103-193)
T10 construct: Order of GST and PDZ part and limits not seen in the excerpts
T10 sequence: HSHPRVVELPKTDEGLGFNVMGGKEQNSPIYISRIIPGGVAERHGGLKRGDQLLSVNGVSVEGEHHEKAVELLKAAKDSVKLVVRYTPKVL

[11] = target: T11, K559 PDZ-GST fusion protein (Homo sapiens (Human), UniProt Q9Y6V0 4489-4593)
T11 construct: Order of GST and PDZ part and limits not seen in the excerpts
T11 sequence: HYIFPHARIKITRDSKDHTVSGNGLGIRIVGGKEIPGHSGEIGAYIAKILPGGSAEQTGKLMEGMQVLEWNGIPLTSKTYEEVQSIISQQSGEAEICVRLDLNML

[12] = target: T12, PICK1 PDZ-GST fusion protein (Bos taurus (Bovine), UniProt Q2T9M1 17-105)
T12 construct: Order of GST and PDZ part and limits not seen in the excerpts
T12 sequence (Q2T9M1 other isoform, or with tags, fused parts or gaps limits assumed): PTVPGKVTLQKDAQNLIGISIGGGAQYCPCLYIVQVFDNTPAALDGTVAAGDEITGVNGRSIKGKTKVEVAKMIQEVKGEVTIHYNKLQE

[13] = target: T13, K316 PDZ-GST fusion protein (Homo sapiens (Human), UniProt Q14CM0 72-159)
T13 construct: Order of GST and PDZ part and limits not seen in the excerpts
T13 sequence (Q14CM0 72-159 limits assumed): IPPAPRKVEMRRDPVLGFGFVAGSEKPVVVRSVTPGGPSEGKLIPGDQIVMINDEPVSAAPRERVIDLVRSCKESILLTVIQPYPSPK

[14] = target: T14, K858 PDZ-GST fusion protein (Homo sapiens (Human), UniProt Q8WWI1 1038-1131)
T14 construct: Order of GST and PDZ part and limits not seen in the excerpts
T14 sequence: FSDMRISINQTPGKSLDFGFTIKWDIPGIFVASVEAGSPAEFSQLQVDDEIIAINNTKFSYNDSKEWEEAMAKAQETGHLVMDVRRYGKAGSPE

[15] = target: T15, SP short PDZ-GST fusion protein (Homo sapiens (Human), UniProt O43464 350-435)
T15 construct: The label SP short is not explained in the excerpts
T15 sequence: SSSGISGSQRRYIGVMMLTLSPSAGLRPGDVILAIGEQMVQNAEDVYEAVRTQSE

Measured: binding result

B1: CD114 (G-CSFR) C-terminal peptide AA27L (peptide)
peptide: Biotin-LNFPLLQGIRVHGMEALGSF
notes: Only the last four residues are seen in the excerpts
no binding: all assays above

B2: CD62E C-terminal peptide AA48L (peptide)
peptide: Biotin-SSSQSLESDGSYQKPSYIL
notes: as for B1
no binding: all assays above

B3: CD5 C-terminal peptide AA49L (peptide)
peptide: Biotin-SMQPDNSSDSDYDLHGAQRL
notes: as for B1
no binding: all assays above

Biotin-ENLAPVTTFGKTNGYIA (also called CD148 (DEP-1)) [CD148 C-terminal peptide AA19L, biotinylated]
no binding: all assays above

B4: Mannose receptor C-terminal peptide AA31L (peptide)
peptide: Biotin-GTSDMKDLVGNIEQNEHSVI
notes: as for B1
no binding: all assays above

Biotin-SSKSKSSEESQTFFGLYKL (not fully specified, also called FasLigand; Fas ligand) [FasL C-terminal peptide AA23L-M, biotinylated]
no binding: all assays above

Biotin-ISKATPALPTVSISSSAEV (also called AA1L-R) [Clasp-1 C-terminal peptide AA1L, biotinylated]
no binding: all assays above

B5: CC CKR-3 C-terminal peptide AA43L (peptide)
peptide: Biotin-LERTSSVSPSTAEPELSIVF
notes: as for B1
no binding: all assays above
